Source: patent WO2001072771A2 (dated 2003)
Positions of bridges follow the written chain, without caps; N, C: chain ends. No end group written: not given here.

What was measured:
sIGF-1R-Fc = biological target: T1, sIGF-1R-Fc (UniProt P08069 31-935); experiment: phage ELISA
T1 construct: also called slGF-1R-Fc; not shown: Fc part not described

[1] = biological target: T2, soluble human insulin receptor (IR-Fc) (human, UniProt P06213 28-956); experiment: assay not given
T2 construct: extracellular domain; retains the beta-alpha-alpha-beta structure; also called sIR; sIR-Fc

[2] = biological target: human IGF-1 receptor (HIGF-1R) (human, UniProt P08069 31-1367); experiment: displacement of 125I-IGF-1 from HIGF-1R

Row | Binder | binding result (sIGF-1R-Fc) | other results
1 | HPPLEHLKAFLLGGGS (on phage; motif 7; also called ~J228) [IM452 (Δ-12-3 #23)] | no binding | –
2 | HPSTNQMLMKLFGGGS (on phage; motif 7) [IM450 (Δ-12-3 #28)] | no binding | –
3 | HPPLSELKLFLIGGGS (on phage; motif 7) [IM451 (Δ-12-3 #34)] | no binding | –
4 | HPSLSDMRWILLGGGS (on phage; motif 7) [IM459 (Δ-12-3* #60)] | no binding | –
5 | APTFYAWFNQQTGGGS (on phage; also called ~J229) [IM445 (Δ-12-3 #6)] | – | IC50 [1]: ~2.4 µM
6 | DYKDCWARPCGDAANFYDWFVQQASKK (disulfide 5-10 (inferred), synthetic; biotinylated where printed as b-C1 or D112; also called D112; b-C1) [C1 peptide] | – | binding result [2]: binds
7 | HPTSKEIYAKLLGGGS (on phage; motif 7) [IM449 (Δ-12-3 #43)] | no binding | –
